{"source": "patent US20020123082A1", "molecular_target": "human p27, wild type (human) (UniProt P46527)", "sequence (P46527 whole entry, the tested form may be a part)": "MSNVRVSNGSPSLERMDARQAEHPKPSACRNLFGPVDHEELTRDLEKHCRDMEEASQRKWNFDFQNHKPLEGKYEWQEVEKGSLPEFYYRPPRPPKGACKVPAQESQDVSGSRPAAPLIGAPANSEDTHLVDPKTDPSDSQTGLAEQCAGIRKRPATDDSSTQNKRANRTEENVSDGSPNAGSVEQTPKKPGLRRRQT", "experiment": "cell-based or functional assay", "data": [{"substance": "(ΔF)Skp2, F-box deleted Skp2 mutant lacking residues 113-152 (from UniProt Q13309 1-112; Q13309 141-424)", "values": [{"measurement": "p27 half-life, pulse chase analysis in NIH-3T3 cells", "value": 3, "unit": "h"}]}]}
